Results: IntAct's records for PubMed 31515488

B1: Fructose-bisphosphate aldolase C (Homo sapiens), P09972 (parent)
chain: MPHSYPALSAEQKKELSDIALRIVAPGKGILAADESVGSMAKRLSQIGVENTEENRRLYRQVLFSADDRVKKCIGGVIFFHETLYQKDDNGVPFVRTIQDKGIVVGIKVDKGVVPLAGTDGETTTQGLDGLSERCAQYKKDGADFAKWRCVLKISERTPSALAILENANVLARYASICQQNGIVPIVEPEILPDGDHDLKRCQYVTEKVLAAVYKALSDHHVYLEGTLLKPNMVTPGHACPIKYTPEEIAMATVTALRRTVPPAVPGVTFLSGGQSEEEASFNLNAINRCPLPRPWALTFSYGRALQASALNAWRGQRDNAGAATEEFIKRAEVNGLAAQGKYEGSGEDGGAAAQSLYIANHAY
partner: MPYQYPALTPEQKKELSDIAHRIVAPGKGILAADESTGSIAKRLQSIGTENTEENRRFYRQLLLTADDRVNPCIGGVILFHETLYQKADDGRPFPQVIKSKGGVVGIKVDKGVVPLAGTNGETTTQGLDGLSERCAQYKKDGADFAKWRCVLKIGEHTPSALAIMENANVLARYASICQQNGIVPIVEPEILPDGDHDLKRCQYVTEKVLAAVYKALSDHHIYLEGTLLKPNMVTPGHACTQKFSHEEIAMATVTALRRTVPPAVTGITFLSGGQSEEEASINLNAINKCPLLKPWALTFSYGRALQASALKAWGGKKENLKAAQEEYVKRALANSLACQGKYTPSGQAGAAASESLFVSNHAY
B2: Fibronectin type III and SPRY domain-containing protein 2 (Homo sapiens), A1L4K1 (parent)
chain: MEEESGEELGLDRSTPKDFHFYHMDLYDSEDRLHLFPEENTRMRKVVQAEMANESRGAGDGKAQRDLQEEVDELVHLYGLEDDHELGDEFVDENIPRTGVSEYPPYMMKRRDPAREQRDWRLSGEAAEAEDLGFGGWGSAGQCQDLREAYRYTHGRASEEYECYVIPEEEDEEEAADVFCVTCKTPIRAFQKVFDEHKEHEVIPLNEALESAKDEIHKNMYKLEKQIIEMENFANHLEEVFITVEENFGKQEQNFESHYNEILETLAQKYEEKIQALGEKKKEKLEALYGQLVSCGENLDTCKELMETIEEMCHEEKVDFIKDAVAMADRLGKFLKTKTDVEISAQPEFEDQTLDFSDVEQLMGSINTIPAPSAPVINPQVPNSATGSSVRVCWSLYSDDTVESYQLSYRPVQDSSPGTDQAEFTVTVKETYCSVTNLVPNTQYEFWVTAHNRAGPSPSSERAVYMTAPSPPIIKTKEIRSCEEAVLICWESGNLNPVDSYTVELTQAESPEASGVTESVVGIPTCESVVQLQPGRSYIIYVRALNMGGPSVRSEPATVHTIGSYFRLNKDTCHPWLTISEDGLTAVRSERRTPARELSPSDTHFTRCVAVMGNLIPVRGHHYWEVEVDEHLDYRVGVAFADVRKQEDLGANCLSWCMRHTFASSRHKYEFLHNRTTPDIRITVPPKKIGILLDYEHSKLSFFNVDLSQHLYTFSCQLHEFVHPCFSLEKPGCLKVHNGISMPKHVTFY
partner: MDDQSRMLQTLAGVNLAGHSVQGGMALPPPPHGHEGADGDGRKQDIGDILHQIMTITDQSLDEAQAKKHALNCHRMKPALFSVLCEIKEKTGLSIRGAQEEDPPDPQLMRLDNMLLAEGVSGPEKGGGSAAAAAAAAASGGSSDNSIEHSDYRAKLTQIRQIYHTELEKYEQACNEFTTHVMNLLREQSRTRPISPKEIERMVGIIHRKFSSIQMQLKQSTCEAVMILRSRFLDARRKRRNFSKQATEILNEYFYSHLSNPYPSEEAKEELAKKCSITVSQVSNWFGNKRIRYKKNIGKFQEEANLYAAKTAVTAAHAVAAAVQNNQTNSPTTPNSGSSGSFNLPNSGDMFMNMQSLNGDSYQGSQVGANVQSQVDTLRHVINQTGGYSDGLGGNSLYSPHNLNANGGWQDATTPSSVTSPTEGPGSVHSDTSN
B3: Tubby-related protein 3 (Homo sapiens), O75386 (parent)
chain: MEASRCRLSPSGDSVFHEEMMKMRQAKLDYQRLLLEKRQRKKRLEPFMVQPNPEARLRRAKPRASDEQTPLVNCHTPHSNVILHGIDGPAAVLKPDEVHAPSVSSSVVEEDAENTVDTASKPGLQERLQKHDISESVNFDEETDGISQSACLERPNSASSQNSTDTGTSGSATAAQPADNLLGDIDDLEDFVYSPAPQGVTVRCRIIRDKRGMDRGLFPTYYMYLEKEENQKIFLLAARKRKKSKTANYLISIDPVDLSREGESYVGKLRSNLMGTKFTVYDRGICPMKGRGLVGAAHTRQELAAISYETNVLGFKGPRKMSVIIPGMTLNHKQIPYQPQNNHDSLLSRWQNRTMENLVELHNKAPVWNSDTQSYVLNFRGRVTQASVKNFQIVHKNDPDYIVMQFGRVADDVFTLDYNYPLCAVQAFGIGLSSFDSKLACE

Variants of: B1
Conditions: with aldoa_human ALDOA

Row | Variant | effect of a mutation on the interaction
1 | N312S | with no effect

Variants of: B2
Conditions: with pbx3_human PBX3, P40426

Row | Variant | effect of a mutation on the interaction
2 | K333T | with no effect
3 | E720K | with no effect

Variants of: B3
Conditions: with maga6_human MAGEA6, P43360
maga6_human MAGEA6, P43360, sequence (P43360 whole entry): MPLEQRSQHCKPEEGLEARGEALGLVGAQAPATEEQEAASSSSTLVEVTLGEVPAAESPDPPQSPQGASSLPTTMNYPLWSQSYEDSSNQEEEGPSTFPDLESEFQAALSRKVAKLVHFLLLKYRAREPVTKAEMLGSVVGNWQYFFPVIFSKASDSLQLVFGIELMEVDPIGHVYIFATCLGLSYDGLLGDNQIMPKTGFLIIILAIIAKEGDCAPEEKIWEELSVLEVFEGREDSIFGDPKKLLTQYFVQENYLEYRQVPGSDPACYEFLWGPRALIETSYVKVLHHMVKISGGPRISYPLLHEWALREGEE

Row | Variant | effect of a mutation on the interaction
4 | G267S | disrupting interaction strength
5 | A296E | with no effect

Variants of: B3
Conditions: with anr54_human ANKRD54, Q6NXT1
anr54_human ANKRD54, Q6NXT1, sequence (Q6NXT1 whole entry): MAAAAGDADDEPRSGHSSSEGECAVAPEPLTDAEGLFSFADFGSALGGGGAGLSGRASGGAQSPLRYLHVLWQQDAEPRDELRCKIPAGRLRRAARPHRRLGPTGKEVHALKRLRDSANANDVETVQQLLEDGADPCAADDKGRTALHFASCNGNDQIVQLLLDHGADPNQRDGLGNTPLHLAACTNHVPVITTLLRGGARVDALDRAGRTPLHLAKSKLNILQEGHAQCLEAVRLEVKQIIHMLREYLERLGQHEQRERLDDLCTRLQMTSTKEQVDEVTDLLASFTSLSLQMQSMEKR

Row | Variant | effect of a mutation on the interaction
6 | G267S | with no effect
